Measured values: publication PMC11239674
Where a chain is given by its changes, count along the chain named.

What was measured:
Assay in all cases: MST
Conditions in all cases: 25 mM Tris-HCl pH 8.0, 150 mM NaCl (150 mM LiCl for Sc1 LiCl), 1 mM DTT, 0.1 mg/ml BSA; 20 nM Cy5-RNA; about 2 min incubation; temperature not stated; low values mean tight binding
[1] = target: T1, AtGRP7 (Arabidopsis thaliana) (UniProt Q03250)
T1 sequence: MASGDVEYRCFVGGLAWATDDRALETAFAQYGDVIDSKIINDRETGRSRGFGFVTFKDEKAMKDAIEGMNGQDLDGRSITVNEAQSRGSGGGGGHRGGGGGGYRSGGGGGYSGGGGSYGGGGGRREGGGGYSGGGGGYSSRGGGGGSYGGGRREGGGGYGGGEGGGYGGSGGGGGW

[2] = target: T2, AtGRP7StoE S132E;S139E (Arabidopsis thaliana) (UniProt Q03250)
T2 sequence: T1 sequence with S132E, S139E

[3] = target: T3, AtBnGRP7 (Arabidopsis thaliana / Brassica napus chimera) (UniProt Q03250)
T3 sequence: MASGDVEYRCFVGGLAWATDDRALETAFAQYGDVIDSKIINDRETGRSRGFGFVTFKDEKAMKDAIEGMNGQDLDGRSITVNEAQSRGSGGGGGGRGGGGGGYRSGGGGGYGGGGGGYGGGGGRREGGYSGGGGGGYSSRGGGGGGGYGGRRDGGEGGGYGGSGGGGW

BnGRP7 (Brassica napus) = target: T4, BnGRP7 (Brassica napus) (UniProt A0A078J5Z4)
T4 sequence: T3 sequence with G4P, A29S, Y31F, I35L, A61S

[4] = target: T5, AtGRP7YtoE Y103E;Y111E;Y118E;Y131E;Y138E;Y148E;Y159E;Y167E (Arabidopsis thaliana) (UniProt Q03250)
T5 sequence: T1 sequence with Y103E, Y111E, Y118E, Y131E, Y138E, Y148E, Y159E, Y167E

[5] = target: T6, AtGRP7StoG S132G;S139G (Arabidopsis thaliana) (UniProt Q03250)
T6 sequence: T1 sequence with S132G, S139G

[6] = target: T7, AtGRP7YtoG Y103G;Y111G;Y118G;Y131G;Y138G;Y148G;Y159G;Y167G (Arabidopsis thaliana) (UniProt Q03250)
T7 sequence: T1 sequence with Y103G, Y111G, Y118G, Y131G, Y138G, Y148G, Y159G, Y167G

[7] = target: T8, AtGRP7short (Arabidopsis thaliana) (UniProt Q03250)
T8 sequence: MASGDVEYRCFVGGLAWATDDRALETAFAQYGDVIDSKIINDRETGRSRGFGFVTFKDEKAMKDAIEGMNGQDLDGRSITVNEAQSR

| Substance | Kd [1] | Kd [2] | Kd [3] | Kd (BnGRP7 (Brassica napus)) | Kd [4] | Kd [5] | Kd [6] | Kd [7] |
| --- | --- | --- | --- | --- | --- | --- | --- | --- |
| AtCOR15A | 224 nM | 738 nM | 741 nM | 323 nM | 23400 nM | 2230 nM | 3750 nM |  |
| GGAUUUGCGCAUUAAACCAAAAAGUGUCACGUGAUAUGUCCCCAACCACUACGAAUUUUAACUACAGAUUUAACCAUGGUUAAACCAGAAUUCACGUAAACCGACUCUAAACCUAGAAAAUAUCUAAACCUUGGUUAAUAUCUCAGCCCCCUUAUAAAUAACGAGACUUCGUCUACAUCGUUCUACACAUCUCACUGCUCACUACUCUCACUGUAAUCCCUUAGAUCUUCUUUUCAAAUUUCAAUGGCGUCCGGUGAUGUUGAGUAUCGGUGCUUCGUUGGAGGUCUAGCAUGGGCCACUGAUGACAGAGCUCUUGAGACUGCCUUCGCUCAAUACGGCGACGUUAUUGAUUCCAAGGUCUGUUACACGCCGAGAUCGGACUCCGAGUGAUAUCGAUGAUCUCAUCCUCGACGGAUCUGUUCCGAUCUUGUGUUUCUCUGUUACUUGAUUCGAUUACUCUGUUACUAUUCUCGUUCUUUGUUACUACUACUACUACUACUGUUACUUGUAUUUUCCCAAAUCGGUACGUUCAUCUUCCUGCUUCUGUGAGCCCGGAGAUCGAUCGGAUUUUUUUGUAUUUUGUAUAUUUGUUGUAGAUCUAAAUGCUUUUGUUCAGUUUUGUUGGAUUGUUUUGCUGAUCUGGUUUUUGUAUUAUUUGGAUAACAGAUCAUUAACGAUCGUGAGACUGGAAGAUCAAGGGGAUUCGGAUUCGUCACCUUCAAGGAUGAGAAAGCCAUGAAGGAUGCGAUUGAGGGAAUGAACGGACAAGAUCUCGAUGGCCGUAGCAUCACUGUUAACGAGGCUCAGUCACGAGGAAGCGGUGGCGGCGGAGGCCACCGUGGAGGUGGUGGCGGUGGAUACCGCAGCGGCGGUGGUGGAGGUUACUCCGGUGGAGGUGGUAGCUACGGAGGUGGCGGCGGUAGACGCGAGGGUGGAGGAGGAUACAGCGGCGGCGGCGGCGGUUACUCCUCAAGAGGUGGUGGUGGCGGAAGCUACGGUGGUGGAAGACGUGAGGGAGGAGGAGGAUACGGUGGUGGUGAAGGAGGAGGUUACGGAGGAAGCGGUGGUGGUGGAGGAUGGUAAUUCCUUUAAUUAGGUUUGGGAUUACCAAUGAAUGUUCUCUCUCUCGCUUGUUAUGCUUCUACUUGGUUUUGUGUGUUCUCUAUUUUGUUCUGGUUCUGCUUUAGAUUUGAUGUAACAGUUCGUGAUUAGGUAUUUUGGUAUCUGGAAACGUAAUGUUAAGUCACUUGUCAUUCUCUAAAUAACAAAUUUCUUCGGAGAUAUUAUCUCUGUUGAUUGAUUCUAUCAUCUAAAUUUCGGAAAUGCUAAUCGGAUACCGGAAUGGUGCCUUUGUUACGAUUGAGUUACUUACAUCACUGAUACAACAAUGAAGUACUUACUGAUUAUCUUUAUACCAUUCACCACACUACCUUUGAUAUUCAACAAUGAAGUAGAAACCUAUUUGGUUCAUUCGCA [AtGRP7] | 364 nM | 1790 nM | 172 nM | 16200 nM | 21300 nM | 606 nM | 19300 nM |  |
| UGGAGAAGCAGGGCACGUGCA [miR164] | 42 nM |  |  | 21 nM |  |  |  | 5930 nM |
| GGCUCGAAACGAGGAGAAAAAAUCAUUAGUUAUCGAAAAUGCUCACAUGAUGUGGGCCUAACCACUAACCCAAUUAACCACACAUCUUAAUCAGAGUAAGUUGAAACAAAUCUUUCAGCAAACCCUAGAAAACAUGUUUAACCCUAGUUAUUACGUCACACCUGUUCUAUAAAUUAAGGCUGCGUCUUAUCACCUCAAAUCACAUAAGUCUCUCUCUUACAUUUUGAAACCCUAAUUUCUCUUCUUUUCCCCAAAAAAAAAUGUCUGAAGUUGAGUACCGGUGCUUUGUCGGCGGCCUUGCCUGGGCCACCAAUGAUGAAGAUCUUCAAAGGACGUUCUCACAGUUCGGCGACGUUAUCGAUUCUAAGGUCUGUUACACGAGAGAUCGGUCUCCCGGAUCGAGCCGAUUCCGAUGAUUCUGAUCCUCGACGGAUCUGAUUCCGAUCUGUUUCUCUGUUACUUGAUUCGAUUACUGUUACUAUGUUCUCUCUCGUUCUUUGUUACUGUUACUUAAUUUGUCCCAUCGGUACGUUCAUCUUCCUGCUUCUAUGAGCUCGGAGAUCGAUCGAUUUUUGCUUUAUAUUCAUCGCUUUGUUUUAUAUUCCUUCCACGAUUGUUUUUGCUGAUGUGUAUGAUUUUGUUUGUUUACAGAUCAUUAACGACCGCGAGAGUGGAAGAUCAAGGGGAUUCGGAUUCGUCACCUUCAAGGACGAGAAAGCCAUGAGGGAUGCGAUUGAAGAGAUGAACGGUAAAGAGCUCGAUGGACGUGUCAUCACCGUGAACGAGGCUCAGUCGAGAGGUAGCGGCGGUGGCGGAGGAGGCCGUGGUGGAAGCGGUGGUGGUUACCGCAGCGGAGGCGGUGGUGGAUACUCAGGAGGCGGUGGCGGCGGAUACUCAGGAGGAGGCGGUGGUGGUUACGAGAGACGUAGCGGAGGUUACGGAUCUGGUGGAGGCGGUGGUGGCCGAGGAUACGGUGGUGGUGGACGCCGUGAGGGAGGUGGCUACGGAGGCGGUGAUGGUGGAAGUUACGGAGGCGGUGGUGGCGGCUGGUAAUCAAAGAUAGAGUUGUUUGCGUGCUGCUGCUCUGUUUUUGGUUUAGAUUUGGUUUUGUGUCACCACUUCUGGUUUGGUUAUCGUUCGUUUGGUUUACUUUUUUGAUGAAACAGUUUCGUUUAAGUCUUCUUUGUCUGGAACGAAAUGUUAAUUCGCGUGUUGUUUACUAAAUUUAUAACGUUUCCUUUUAACCAGAUUCGAGAUUUUCCCUCAAAUAAUUUAUCUUGUUAGACACAUGUAUUUAAUCGAACAGCAGCUAAAGGAUUCAAAUGAUUUUCUUAUCAAUAAUUACUAUAGUUUGAAAUUGAUUAGUUCUUUAACUUUUGACCUACCAAUA [AtGRP8] | 156 nM | 923 nM | 312 nM | 502 nM |  | 1370 nM | 3390 nM |  |
| GGAUGUCUGAAGUUGAGUACCGGUGCUUUGUCGGCGGCCUUGCCUGGGCCACCAAUGAUGAAGAUCUUCAAAGGACGUUCUCACAGUUCGGCGACGUUAUCGAUUCUAAGAUCAUUAACGACCGCGAGAGUGGAAGAUCAAGGGGAUUCGGAUUCGUCACCUUCAAGGACGAGAAAGCCAUGAGGGAUGCGAUUGAAGAGAUGAACGGUAAAGAGCUCGAUGGACGUGUCAUCACCGUGAACGAGGCUCAGUCGAGAGGUAGCGGCGGUGGCGGAGGAGGCCGUGGUGGAAGCGGUGGUGGUUACCGCAGCGGAGGCGGUGGUGGAUACUCAGGAGGCGGUGGCGGCGGAUACUCAGGAGGAGGCGGUGGUGGUUACGAGAGACGUAGCGGAGGUUACGGAUCUGGUGGAGGCGGUGGUGGCCGAGGAUACGGUGGUGGUGGACGCCGUGAGGGAGGUGGCUACGGAGGCGGUGAUGGUGGAAGUUACGGAGGCGGUGGUGGCGGCUGGUAA [AtGRP8] | 177 nM | 937 nM | 135 nM | 9160 nM | 2790 nM | 493 nM | 381 nM |  |
| GGAUGGCGAUGUCUUUCUCAGGAGCUGUUCUCACUGGUAUGGCUUCUUCUUUCCACAGCGGAGCCAAGCAGAGCAGCUUCGGCGCUGUCAGAGUCGGCCAGAAAACUCAGUUCGUCGUCGUUUCUCAACGCAAGAAGUCGUUGAUCUACGCCGCUAAAGGUGACGGCAACAUCCUCGAUGACCUCAACGAGGCCACAAAGAAAGCUUCAGAUUUCGUGACGGAUAAAACAAAAGAGGCAUUAGCAGAUGGUGAGAAAGCGAAAGACUACGUUGUUGAAAAAAACAGUGAAACCGCAGAUACAUUGGGUAAAGAAGCUGAGAAAGCUGCGGCGUAUGUGGAGGAGAAAGGAAAAGAAGCCGCAAACAAGGCGGCAGAGUUCGCGGAGGGUAAAGCAGGAGAGGCUAAGGAUGCCACAAAGUAG [AtCOR15A] | 62 nM | 2470 nM | 548 nM | 153 nM |  | 2300 nM | 2700 nM |  |
| UCUUGUUCUGGUUUGGUUUUGAAC [Bn-miRnovel2] | 260 nM | 29 nM | 35 nM | 5.8 nM | 267 nM | 22 nM | 41 nM | 4490 nM |
